Assay [1] concerns the target SETDB1 peptide RQVAVKme2STRGFALKme2STHGIAIKme2STN (human).
For assay [2], the target named is SETDB1 peptide RQVAVKme3STRGFALKme3STHGIAIKme3STN (human).

As usually defined, the Kd is the concentration at which binding is half-saturated. Lower therefore signals a tighter complex. As to “Cbx7 chromodomain, Cbx7-(8–62) (from UniProt O95931 8-62) (domain or fragment)”, the Kd in assay [1] was 15 µM; in assay [2], 1.2 µM. Take “Cbx8 chromodomain, Cbx8-(8–61) (from UniProt Q9HC52 8-61) (domain or fragment)”: the Kd in assay [1] is 180 µM.

These data come from article PMC3013012.
